Substitutions are numbered along the chain they refer to. In names and notes the source's numbering stands. Entries after “also recorded” stand apart in the source; their conditions may differ.
B1: Smad2-W422A: W422A mutant of full-length Smad2; specific PI(4,5)P2 binding-compromised (protein)
chain: MSSILPFTPPVVKRLLGWKKSAGGSGGAGGGEQNGQEEKWCEKAVKSLVKKLKKTGRLDELEKAITTQNCNTKCVTIPSTCSEIWGLSTANTVDQWDTTGLYSFSEQTRSLDGRLQVSHRKGLPHVIYCRLWRWPDLHSHHELKAIENCEYAFNLKKDEVCVNPYHYQRVETPVLPPVLVPRHTEILTELPPLDDYTHSIPENTNFPAGIEPQSNYIPETPPPGYISEDGETSDQQLNQSMDTGSPAELSPTTLSPVNHSLDLQPVTYSEPAFWCSIAYYELNQRVGETFHASQPSLTVDGFTDPSNSERFCLGLLSNVNRNATVEMTRRHIGRGVRLYYIGGEVFAECLSDSAIFVQSPNCNQRYGWHPATVCKIPPGCNLKIFNNQEFAALLAQSVNQGFEAVYQLTRMCTIRMSFVKGAGAEYRRQTVTSTPCWIELHLNGPLQWLDKVLTQMGSPSVRCSSMS
modifications: left off: His6, N-terminal, state not stated
B2: Smad2 WT: bacterially expressed full-length Smad2 wild-type (protein)
chain: B1 chain with A422W
modifications: left off: His6, N-terminal, state not stated
notes: bacterially expressed full-length Smad2 wild-type
B3: Smad2-E425K: charge-reversal mutant of full-length Smad2; PI(4,5)P2 and TβRI binding-enhanced (protein)
chain: B1 chain with A422W, E425K
modifications: left off: His6, N-terminal, state not stated
B4: Smad2-Y426A: Y426A mutant of full-length Smad2; specific PI(4,5)P2 binding-compromised (protein)
chain: B1 chain with A422W, Y426A
modifications: left off: His6, N-terminal, state not stated
B5: Smad2-K420A: K420A mutant of full-length Smad2; predominantly TβRI binding-compromised (protein)
chain: B1 chain with K420A, A422W
modifications: left off: His6, N-terminal, state not stated
B6: Smad2- R427A/R428A: double mutant of full-length Smad2; PI(4,5)P2 and TβRI binding-compromised (protein)
chain: B1 chain with A422W, R427A, R428A
modifications: left off: His6, N-terminal, state not stated

Assay: SPR membrane binding to POPC/POPS/PI(4,5)P2 vesicles
Details: for affinity for POPC/POPS/PI(4,5)P2 (77:20:3) relative to WT: in words; for Kd: L1 chip, 23 °C, 20 mM Tris, pH 7.4, 0.16 M NaCl, average ±S.D., n = 3, read-out: Kd for lipid binding, PC/PS/PI(4,5)P2; for PI(4,5)P2 selectivity over POPC/POPS (80:20) / binding to POPC/POPS/PI(4,5)P2 (77:20:3): RU/RUmax
Text: It has been generally thought that Smad2 and Smad3 are targeted to the activated TGF-β signaling complex by direct interaction with TβRI ([1], [2]) or via SARA ([7]). However, it has been shown that many cytosolic proteins that are targeted to membrane proteins or membrane-anchored signaling complexes have affinity for membrane lipids ([14]), phosphoinositides (PtdInsPs) in particular, and that their membrane recruitment is mediated by coincident lipid–protein and protein–protein interactions ([15], [16]). For most of these proteins, their PtdInsP specificity directs their membrane targeting behaviors: e.g., PI(4,5)P2-specific proteins are recruited to PM where the highest concentration of PI(4,5)P2 is found, whereas PI(3)P-specific proteins are targeted to PI(3)P-rich EEs ([17], [18]). To resolve uncertainty about the functional location of the activated TGF-β signaling complex, we thus explored the possibility that lipid-binding activity of Smad2 may play a role in specific targeting of Smad2 to the active TGF-β receptor complex either at the PM or at EEs. Lipid-binding activity of Smad proteins has not been reported to date. We thus measured the binding of bacterially expressed Smad2 to large unilamellar vesicles (LUVs) containing various lipids by surface plasmon resonance (SPR) analysis ([19], [20]). Lipid selectivity determined by SPR analysis is typically reported as the relative resonance unit (RU) values for different lipids at a given protein concentration ([21], [22]). Although simple and intuitive, this type of analysis can sometimes yield misleading and erroneous results because some proteins show widely different RU values when bound to different lipid surfaces. Thus, a more reliable parameter that represents the fraction of the membrane bound protein molecules at a given protein concentration would be a normalized value of RU/RUmax where RUmax indicates the maximal RU value when a given lipid surface is saturated with the protein molecules. We thus estimated RUmax for different lipid species by employing the highest protein concentration experimentally feasible (e.g., 1 μM) and determined RU/RUmax for different lipids at the protein concentration that allows robust comparison (e.g., 100 nM). Once the lipid selectivity has been determined by this semiquantitative approach, we then rigorously determined and compared Kd values for selected lipids for more accurate quantitative determination of lipid selectivity.
Figure 1 Membrane-binding properties of Smad2 FL protein and MH2 domain determined by SPR analysis.A, PtdInsP selectivity of Smad2-FL determined using POPC/POPS/PtdInsP (77:20:3 in mole ratio) LUVs coated on the L1 sensor chip. The protein concentration was 100 nM. PIP3 indicates PI(3,4,5)P3. B, determination of Kd for binding of Smad2 FL to different LUVs. The protein concentration was varied from 0 to 500 nM. C, PI(4,5)P2 concentration dependence of membrane binding of Smad2-FL determined using POPC/POPS/PI(4,5)P2 (77-x:20:x, x = 0–5 mol%) LUVs. The protein concentration was 100 nM. D, PtdInsP selectivity of the Smad2 MH2 domain determined using POPC/POPS/PtdInsP (77:20:3 in mole ratio) LUVs. The protein concentration was 100 nM. Normalized RU values (RU/RUmax) were used for all figures but (C) for more accurate determination of PtdInsP selectivity. RUmax values determined for different vesicles at 1 μM Smad2 were: 280 ± 20 for POPC/POPS/PI(4,5)P2 (77:20:3), 370 ± 10 for POPC/POPS/PI(3,4)P2 (77:20:3), 400 ± 15 for POPC/POPS/PI(3,4,5)P3 (or PIP3) (77:20:3), 400 ± 20 for POPC/POPS/PI(3)P (77:20:3), and 380 ± 20 for POPC/POPS (80:20). Only the association phases of the sensorgrams are shown and used for further analysis. Each set of sensorgrams shown in A and D are representatives of >5 independent measurements. Data points shown in B and C are the average ±S.D. values from triplicate measurements. […]

[1] = SPR, POPC/POPS/PI(4,5)P2 (77:20:3)

Row | Molecule | affinity for POPC/POPS/PI(4,5)P2 (77:20:3) relative to WT (SPR, Kd comparison) | Kd [1] [nM] | PI(4,5)P2 selectivity over POPC/POPS (80:20) (SPR, 100 nM protein) | binding to POPC/POPS/PI(4,5)P2 (77:20:3) (SPR, 100 nM protein) | RUmax (POPC/POPS/PI(4,5)P2 (77:20:3), 1 μM Smad2) | affinity for PI(4,5)P2-containing vesicles relative to PI(3)P-containing ones (SPR, Kd comparison) | increase in membrane affinity by 3 mol% PI(4,5)P2 over POPC/POPS (80:20) vesicles (SPR, Kd comparison) [fold] | PI(4,5)P2 concentration dependence of membrane binding (SPR, POPC/POPS/PI(4,5)P2 (77-x:20:x, x = 0–5 mol%), 100 nM protein) | higher affinity for POPC/POPS/PI(4,5)P2 (77:20:3) than WT (SPR, increase in affinity vs WT) [%] | lower affinity for POPC/POPS/PI(4,5)P2 (77:20:3) than WT (SPR, decrease in affinity vs WT) [%]
1 | B1 | three- to five-fold lower affinity | 470 ± 96 | essentially no PI(4,5)P2 selectivity; also recorded: lost the PI(4,5)P2 selectivity | greatly reduced binding |  |  |  |  |  | 
2 | B2 |  | 100 ± 20 |  |  | 280 ± 20 | twofold higher affinity | 5.6 | dependent on the PI(4,5)P2 concentration |  | 
3 | B3 |  | 70 ± 7 | retaining the PI(4,5)P2 selectivity of WT | modestly higher membrane binding than WT |  |  |  |  | ~40 | 
4 | B4 | three- to five-fold lower affinity | 400 ± 44 | essentially no PI(4,5)P2 selectivity; also recorded: lost the PI(4,5)P2 selectivity | greatly reduced binding |  |  |  |  |  | 
5 | B5 |  | 120 ± 12 |  | modestly and similarly reduced binding to both vesicles |  |  |  |  |  | 20
6 | B6 | three- to five-fold lower affinity | 340 ± 53 | essentially no PI(4,5)P2 selectivity; also recorded: lost the PI(4,5)P2 selectivity | greatly reduced binding |  |  |  |  |  | 
